From patent publication US10428140B2, “Anti-EphA4 antibody” (EISAI R&D MANAGEMENT CO., LTD., priority 2015, dated 2019)
Numbering of substitutions follows the chain as printed.

T1: human EphB2 (Homo sapiens, UniProt P29323)
T1 construct: a protein of the extracellular region of each human Eph receptor fused with the SEAP protein and the His tag; made in house; host or cells: Expi293F cells
T1 sequence (P29323 19-543 limits assumed): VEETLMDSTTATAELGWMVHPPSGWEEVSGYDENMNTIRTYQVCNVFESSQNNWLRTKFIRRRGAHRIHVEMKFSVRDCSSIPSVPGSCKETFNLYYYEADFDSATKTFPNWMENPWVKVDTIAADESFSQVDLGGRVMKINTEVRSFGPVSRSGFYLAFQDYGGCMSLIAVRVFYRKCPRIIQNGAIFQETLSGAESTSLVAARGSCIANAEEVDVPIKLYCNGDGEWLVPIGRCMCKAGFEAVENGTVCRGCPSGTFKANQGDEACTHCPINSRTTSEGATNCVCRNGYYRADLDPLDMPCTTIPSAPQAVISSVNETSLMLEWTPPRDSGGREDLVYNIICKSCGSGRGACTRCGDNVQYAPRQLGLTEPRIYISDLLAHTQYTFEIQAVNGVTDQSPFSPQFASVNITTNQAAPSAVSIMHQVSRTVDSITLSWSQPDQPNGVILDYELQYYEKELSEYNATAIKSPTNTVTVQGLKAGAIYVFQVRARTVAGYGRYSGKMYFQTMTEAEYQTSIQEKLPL

T2: human EphA7 (Homo sapiens, UniProt Q15375)
T2 construct: a protein of the extracellular region of each human Eph receptor fused with the SEAP protein and the His tag; made in house; host or cells: Expi293F cells (culture supernatant)
T2 sequence (Q15375 28-555 limits assumed): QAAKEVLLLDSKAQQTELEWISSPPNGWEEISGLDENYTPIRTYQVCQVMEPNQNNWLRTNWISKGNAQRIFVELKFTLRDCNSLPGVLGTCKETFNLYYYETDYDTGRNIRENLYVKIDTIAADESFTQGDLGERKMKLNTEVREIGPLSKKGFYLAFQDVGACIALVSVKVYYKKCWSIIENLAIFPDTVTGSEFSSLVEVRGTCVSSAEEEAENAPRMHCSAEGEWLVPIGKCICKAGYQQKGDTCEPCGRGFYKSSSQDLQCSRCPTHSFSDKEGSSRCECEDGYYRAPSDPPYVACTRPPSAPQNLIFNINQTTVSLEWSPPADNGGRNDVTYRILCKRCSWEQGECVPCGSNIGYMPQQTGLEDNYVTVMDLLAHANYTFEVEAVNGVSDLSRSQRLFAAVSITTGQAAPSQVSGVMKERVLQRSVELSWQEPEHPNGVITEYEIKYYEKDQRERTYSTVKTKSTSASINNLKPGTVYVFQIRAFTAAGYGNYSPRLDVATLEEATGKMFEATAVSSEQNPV

T3: human EphB1 (Homo sapiens, UniProt P54762)
T3 construct: a protein of the extracellular region of each human Eph receptor fused with the SEAP protein and the His tag; made in house; host or cells: Expi293F cells (culture supernatant)
T3 sequence (P54762 18-540 limits assumed): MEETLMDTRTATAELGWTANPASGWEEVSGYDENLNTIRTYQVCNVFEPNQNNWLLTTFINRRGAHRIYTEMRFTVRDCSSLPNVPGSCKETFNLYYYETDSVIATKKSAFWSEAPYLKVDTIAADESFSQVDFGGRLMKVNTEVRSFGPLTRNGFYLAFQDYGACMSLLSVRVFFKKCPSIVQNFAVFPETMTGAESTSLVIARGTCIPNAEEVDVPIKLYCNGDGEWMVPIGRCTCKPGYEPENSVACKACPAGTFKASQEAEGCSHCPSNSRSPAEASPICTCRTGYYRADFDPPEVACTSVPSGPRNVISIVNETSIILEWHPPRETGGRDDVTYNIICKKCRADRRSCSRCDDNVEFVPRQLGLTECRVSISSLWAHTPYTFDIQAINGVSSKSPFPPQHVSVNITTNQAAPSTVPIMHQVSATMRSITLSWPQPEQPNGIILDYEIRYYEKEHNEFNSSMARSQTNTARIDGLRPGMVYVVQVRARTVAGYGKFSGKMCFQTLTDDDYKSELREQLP

B1: 159 (antibody, V domains shown)
VH: QVQLVQSGSELKKPGASVKVSCKASGYTFTDYSMHWVRQAPGQGLKWMGWINTETGEPTYADDFKGRFVFSLDTSVSTAYLQISSLKAEDTAVYYCARIPLYYYGSRYWYFDVWGQGTTVTVSS
VL: DIQMTQSPSSLSASVGDRVTITCRASENIYRNLAWYQQKPGKAPQLLLYAATNLADGVPSRFSGSGSGTDYTLTISSLQPEDFATYYCQHFWGTPWTFGQGTKVEIK
modifications: synthetic humanized antibody heavy chain variable region sequence; synthetic humanized antibody light chain variable region sequence
B2: 160 (antibody, V domains shown)
VH: B1 VH with V2I
VL: B1 VL
modifications: synthetic humanized antibody heavy chain variable region sequence; synthetic humanized antibody light chain variable region sequence
B3: 133 (antibody, V domains shown)
VH: B1 VH with K46E, D62Q, D63G, K65T
VL: EIVMTQSPATLSVSPGERATLSCRASENIYRNLAWYQQKPGQSPRLLIYAATNLADGIPARFSGSGSGTEYTLTISSLQSEDFAVYYCQHFWGTPWTFGQGTKVEIK
modifications: synthetic humanized antibody heavy chain variable region sequence; synthetic humanized antibody light chain variable region sequence
B4: 134 (antibody, V domains shown)
VH: B1 VH with D62Q, D63G, K65T
VL: B3 VL
modifications: synthetic humanized antibody heavy chain variable region sequence; synthetic humanized antibody light chain variable region sequence
B5: 132 (antibody, V domains shown)
VH: B1 VH with V2I, D62Q, D63G, K65T
VL: B3 VL
modifications: synthetic humanized antibody heavy chain variable region sequence; synthetic humanized antibody light chain variable region sequence
B6: 135 (antibody, V domains shown)
VH: B1 VH with K46E
VL: B3 VL
modifications: synthetic humanized antibody heavy chain variable region sequence; synthetic humanized antibody light chain variable region sequence
B7: 75 (antibody)
VH: B1 VH with K46E, D62Q, D63G, K65T
VL: B1 VL with Q45K, L48V
chain: ASTKGPSVFPLAPSSKSTSGGTAALGCLVKDYFPEPVTVSWNSGALTSGVHTFPAVLQSSGLYSLSSVVTVPSSSLGTQTYICNVNHKPSNTKVDKRVEPKSCDKTHTCPPCPAPPAAAPSVFLFPPKPKDTLMISRTPEVTCVVVDVSHEDPEVQFNWYVDGVEVHNAKTKPREEQFNSTFRVVSVLTVVHQDWLNGKEYKCKVSNKGLPAPIEKTISKTKGQPREPQVYTLPPSREEMTKNQVSLTCLVKGFYPSDIAVEWESNGQPENNYKTTPPMLDSDGSFFLYSKLTVDKSRWQQGNVFSCSVMHEALHNHYTQKSLSLSPG
modifications: synthetic humanized antibody heavy chain variable region sequence; synthetic humanized antibody light chain variable region sequence; synthetic antibody constant region sequence
B8: 76 (antibody, V domains shown)
VH: B1 VH with D62Q, D63G, K65T
VL: B1 VL with Q45K, L48V
modifications: synthetic humanized antibody heavy chain variable region sequence; synthetic humanized antibody light chain variable region sequence
B9: 67 (antibody, V domains shown)
VH: B1 VH with V2I, D62Q, D63G, K65T
VL: B1 VL with Q45K, L48V
modifications: synthetic humanized antibody heavy chain variable region sequence; synthetic humanized antibody light chain variable region sequence

These molecules were tested against T1, human EphB2 (assay: Selectivity ELISA of humanized antibodies for human Eph receptor). Settings: coated protein 1 nM.
Assay type: binding
Outline: (§1)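 Capture ELISA: anti-6-His coat, 1% BlockAce block, Eph ECD-SEAP-His (1 nM final, Expi293F supernatant) 1 h RT, humanized Ab 1 h RT, HRP anti-IgG 1 h RT, TMB, H2SO4 stop, A450.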

First: B1
Second: B2
The “hEphB2-SEAP-: absorbance at 450 nm, percentage with respect to hEphA4-SEAP-His as 100%” value of the first is lower: 5.4% for the first, 6.2% for the second.

First: B3
Second: B4
The “hEphB2-SEAP-: absorbance at 450 nm, percentage with respect to hEphA4-SEAP-His as 100%” value of the first is lower: 4.6% for the first, 5.1% for the second.

Compared with B5, B6 is higher in “hEphB2-SEAP-: absorbance at 450 nm, percentage with respect to hEphA4-SEAP-His as 100%” value: 4.7% for the first, 5.0% for the second.

Compared with B7, B8 is higher in “hEphB2-SEAP-: absorbance at 450 nm, percentage with respect to hEphA4-SEAP-His as 100%” value: 4.5% for the first, 4.9% for the second.

B9 was tested, and the “hEphB2-SEAP-: absorbance at 450 nm, percentage with respect to hEphA4-SEAP-His as 100%” value was 4.7%.

These molecules were tested against T4, human EphA5 (Homo sapiens, UniProt P54756) in the same assay as above. Settings: coated protein 1 nM.
T4 construct: a protein of the extracellular region of each human Eph receptor fused with the SEAP protein and the His tag; made in house; host or cells: Expi293F cells (culture supernatant)
Assay type: binding
Outline: as §1

T4 sequence (P54756 25-573 limits assumed): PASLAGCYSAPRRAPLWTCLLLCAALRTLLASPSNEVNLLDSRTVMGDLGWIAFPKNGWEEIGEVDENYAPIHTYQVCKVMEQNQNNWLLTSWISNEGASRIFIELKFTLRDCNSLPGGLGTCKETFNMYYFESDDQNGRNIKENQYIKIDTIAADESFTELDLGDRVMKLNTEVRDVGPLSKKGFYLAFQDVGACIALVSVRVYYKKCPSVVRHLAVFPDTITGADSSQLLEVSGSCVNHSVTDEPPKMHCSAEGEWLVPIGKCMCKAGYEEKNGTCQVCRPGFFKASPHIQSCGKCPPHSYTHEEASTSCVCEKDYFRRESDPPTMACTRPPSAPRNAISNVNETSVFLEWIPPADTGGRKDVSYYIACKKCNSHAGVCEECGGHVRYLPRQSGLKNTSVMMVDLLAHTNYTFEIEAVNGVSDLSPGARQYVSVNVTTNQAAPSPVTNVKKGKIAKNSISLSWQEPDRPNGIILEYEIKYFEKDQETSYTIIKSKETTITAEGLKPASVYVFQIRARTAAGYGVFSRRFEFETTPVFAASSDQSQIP

Going from B1 to B2, the “hEphA5-SEAP-: absorbance at 450 nm, percentage with respect to hEphA4-SEAP-His as 100%” value rises from 5.5% to 6.5%.

First: B3
Second: B4
The “hEphA5-SEAP-: absorbance at 450 nm, percentage with respect to hEphA4-SEAP-His as 100%” value of the first is lower: 4.7% for the first, 5.2% for the second.

Going from B5 to B6, the “hEphA5-SEAP-: absorbance at 450 nm, percentage with respect to hEphA4-SEAP-His as 100%” value rises from 4.7% to 5.0%.

Compared with B7, B8 is higher in “hEphA5-SEAP-: absorbance at 450 nm, percentage with respect to hEphA4-SEAP-His as 100%” value: 4.7% for the first, 5.3% for the second.

B9 was tested, and the “hEphA5-SEAP-: absorbance at 450 nm, percentage with respect to hEphA4-SEAP-His as 100%” value was 4.8%.

Each molecule was assayed against T2, human EphA7 in the same assay as above. Settings: coated protein 1 nM.
Assay type: binding
Outline: as §1

Compared with B1, B2 is higher in “hEphA7-SEAP-: absorbance at 450 nm, percentage with respect to hEphA4-SEAP-His as 100%” value: 5.5% for the first, 6.1% for the second.

Going from B3 to B4, the “hEphA7-SEAP-: absorbance at 450 nm, percentage with respect to hEphA4-SEAP-His as 100%” value rises from 4.6% to 5.1%.

First: B5
Second: B6
The “hEphA7-SEAP-: absorbance at 450 nm, percentage with respect to hEphA4-SEAP-His as 100%” value of the first is lower: 4.5% for the first, 5.2% for the second.

First: B7
Second: B8
The “hEphA7-SEAP-: absorbance at 450 nm, percentage with respect to hEphA4-SEAP-His as 100%” value of the first is lower: 4.7% for the first, 4.8% for the second.

With B9 the “hEphA7-SEAP-: absorbance at 450 nm, percentage with respect to hEphA4-SEAP-His as 100%” value was 4.7%.

Each molecule was assayed against T3, human EphB1 in the same assay as above. Settings: coated protein 1 nM.
Assay type: binding
Outline: as §1

Compared with B1, B2 is higher in “hEphB1-SEAP-: absorbance at 450 nm, percentage with respect to hEphA4-SEAP-His as 100%” value: 5.3% for the first, 6.1% for the second.

Compared with B3, B4 is higher in “hEphB1-SEAP-: absorbance at 450 nm, percentage with respect to hEphA4-SEAP-His as 100%” value: 4.6% for the first, 5.1% for the second.

First: B5
Second: B6
The “hEphB1-SEAP-: absorbance at 450 nm, percentage with respect to hEphA4-SEAP-His as 100%” value of the first is lower: 4.8% for the first, 5.1% for the second.

First: B7
Second: B8
The “hEphB1-SEAP-: absorbance at 450 nm, percentage with respect to hEphA4-SEAP-His as 100%” value of the first is lower: 4.4% for the first, 4.9% for the second.

In the case of B9, the “hEphB1-SEAP-: absorbance at 450 nm, percentage with respect to hEphA4-SEAP-His as 100%” value is reported as 4.6%.
